First the molecules themselves.
B1: GAS2-like protein 1, residues 209 to 276; numbered along this chain, Q99501 (parent)
chain: DELVREILGRCTCPDQFPMIKVSEGKYRVGDSSLLIFVRVLRSHVMVRVGGGWDTLEHYLDKHDPCRC

± gives the uncertainty stated by the source.

Variants of B1 are the subject of this data set. Description: abundance fitness (aPCA) (normalised: wild type 0, dead -1); higher = more abundant; growth selection in yeast, the domain comes from the species named. To be noted: Homo sapiens.
As for DELVREILGRCTQPDQFPMIKVSEGKYRVGDSSLLIFVRVLRSHVMVRVGGGWDTLEHYLDKHDPCRC [C13Q], the abundance fitness was -0.869 ± 0.15. For DELVREILGRCTWPDQFPMIKVSEGKYRVGDSSLLIFVRVLRSHVMVRVGGGWDTLEHYLDKHDPCRC [C13W], the abundance fitness is -0.922 ± 0.12.

For DELVREILGRCTAPDQFPMIKVSEGKYRVGDSSLLIFVRVLRSHVMVRVGGGWDTLEHYLDKHDPCRC [C13A], the abundance fitness was -0.974 ± 0.19. Regarding DELVREILGRCTLPDQFPMIKVSEGKYRVGDSSLLIFVRVLRSHVMVRVGGGWDTLEHYLDKHDPCRC [C13L], the abundance fitness was -0.719 ± 0.072. For DELVREILGRCTIPDQFPMIKVSEGKYRVGDSSLLIFVRVLRSHVMVRVGGGWDTLEHYLDKHDPCRC [C13I], the abundance fitness was -0.304 ± 0.1. The figure for DELVREILGRCTYPDQFPMIKVSEGKYRVGDSSLLIFVRVLRSHVMVRVGGGWDTLEHYLDKHDPCRC [C13Y] is -0.744 ± 0.14; for DELVREILGRCTGPDQFPMIKVSEGKYRVGDSSLLIFVRVLRSHVMVRVGGGWDTLEHYLDKHDPCRC [C13G] it is -0.682 ± 0.078. Consider DELVREILGRCTSPDQFPMIKVSEGKYRVGDSSLLIFVRVLRSHVMVRVGGGWDTLEHYLDKHDPCRC [C13S], for which the abundance fitness was -0.728 ± 0.071. Regarding DELVREILGRCTPPDQFPMIKVSEGKYRVGDSSLLIFVRVLRSHVMVRVGGGWDTLEHYLDKHDPCRC [C13P], the abundance fitness was -0.972 ± 0.24. The value for DELVREILGRCTRPDQFPMIKVSEGKYRVGDSSLLIFVRVLRSHVMVRVGGGWDTLEHYLDKHDPCRC [C13R] was -0.851 ± 0.087; that for DELVREILGRCTHPDQFPMIKVSEGKYRVGDSSLLIFVRVLRSHVMVRVGGGWDTLEHYLDKHDPCRC [C13H] was -0.874 ± 0.28. The value for DELVREILGRCTMPDQFPMIKVSEGKYRVGDSSLLIFVRVLRSHVMVRVGGGWDTLEHYLDKHDPCRC [C13M] was -0.786 ± 0.15; that for DELVREILGRCTKPDQFPMIKVSEGKYRVGDSSLLIFVRVLRSHVMVRVGGGWDTLEHYLDKHDPCRC [C13K] was -1.13 ± 0.26; that for DELVREILGRCTFPDQFPMIKVSEGKYRVGDSSLLIFVRVLRSHVMVRVGGGWDTLEHYLDKHDPCRC [C13F] was -0.894 ± 0.13. As for DELVREILGRCTVPDQFPMIKVSEGKYRVGDSSLLIFVRVLRSHVMVRVGGGWDTLEHYLDKHDPCRC [C13V], the abundance fitness was -0.306 ± 0.074. The figure for DELVREILGRCTEPDQFPMIKVSEGKYRVGDSSLLIFVRVLRSHVMVRVGGGWDTLEHYLDKHDPCRC [C13E] is -0.726 ± 0.2; for DELVREILGRCTTPDQFPMIKVSEGKYRVGDSSLLIFVRVLRSHVMVRVGGGWDTLEHYLDKHDPCRC [C13T] it is -0.817 ± 0.15; for DELVREILGRCTDPDQFPMIKVSEGKYRVGDSSLLIFVRVLRSHVMVRVGGGWDTLEHYLDKHDPCRC [C13D] it is -0.752 ± 0.12. With DELVREILGRCTCPTQFPMIKVSEGKYRVGDSSLLIFVRVLRSHVMVRVGGGWDTLEHYLDKHDPCRC [D15T], the abundance fitness amounted to 0.125 ± 0.059.

With DELVREILGRCTCPSQFPMIKVSEGKYRVGDSSLLIFVRVLRSHVMVRVGGGWDTLEHYLDKHDPCRC [D15S], the abundance fitness is 0.026 ± 0.039. The figure for DELVREILGRCTCPCQFPMIKVSEGKYRVGDSSLLIFVRVLRSHVMVRVGGGWDTLEHYLDKHDPCRC [D15C] is -0.188 ± 0.045; for DELVREILGRCTCPMQFPMIKVSEGKYRVGDSSLLIFVRVLRSHVMVRVGGGWDTLEHYLDKHDPCRC [D15M] it is 0.046 ± 0.05. The value for DELVREILGRCTCPPQFPMIKVSEGKYRVGDSSLLIFVRVLRSHVMVRVGGGWDTLEHYLDKHDPCRC [D15P] was -0.964 ± 0.21; that for DELVREILGRCTCPFQFPMIKVSEGKYRVGDSSLLIFVRVLRSHVMVRVGGGWDTLEHYLDKHDPCRC [D15F] was -0.259 ± 0.06. The figure for DELVREILGRCTCPNQFPMIKVSEGKYRVGDSSLLIFVRVLRSHVMVRVGGGWDTLEHYLDKHDPCRC [D15N] is 0.087 ± 0.077.

For the variant DELVREILGRCTCPYQFPMIKVSEGKYRVGDSSLLIFVRVLRSHVMVRVGGGWDTLEHYLDKHDPCRC [D15Y], the abundance fitness is -0.151 ± 0.052. The value for DELVREILGRCTCPEQFPMIKVSEGKYRVGDSSLLIFVRVLRSHVMVRVGGGWDTLEHYLDKHDPCRC [D15E] was 0.101 ± 0.052.

For the variant DELVREILGRCTCPVQFPMIKVSEGKYRVGDSSLLIFVRVLRSHVMVRVGGGWDTLEHYLDKHDPCRC [D15V], the abundance fitness was determined as 0.054 ± 0.04. The value for DELVREILGRCTCPAQFPMIKVSEGKYRVGDSSLLIFVRVLRSHVMVRVGGGWDTLEHYLDKHDPCRC [D15A] was 0.04 ± 0.044; that for DELVREILGRCTCPHQFPMIKVSEGKYRVGDSSLLIFVRVLRSHVMVRVGGGWDTLEHYLDKHDPCRC [D15H] was 0.017 ± 0.082. DELVREILGRCTCPRQFPMIKVSEGKYRVGDSSLLIFVRVLRSHVMVRVGGGWDTLEHYLDKHDPCRC [D15R]: the abundance fitness came to 0.018 ± 0.038.

With DELVREILGRCTCPGQFPMIKVSEGKYRVGDSSLLIFVRVLRSHVMVRVGGGWDTLEHYLDKHDPCRC [D15G], the abundance fitness is -0.379 ± 0.1. The figure for DELVREILGRCTCPQQFPMIKVSEGKYRVGDSSLLIFVRVLRSHVMVRVGGGWDTLEHYLDKHDPCRC [D15Q] is -0.002 ± 0.081.

In the case of DELVREILGRCTCPKQFPMIKVSEGKYRVGDSSLLIFVRVLRSHVMVRVGGGWDTLEHYLDKHDPCRC [D15K], the abundance fitness was 0.034 ± 0.053.

Regarding DELVREILGRCTCPLQFPMIKVSEGKYRVGDSSLLIFVRVLRSHVMVRVGGGWDTLEHYLDKHDPCRC [D15L], the abundance fitness is -0.058 ± 0.034. Consider DELVREILGRCTCPIQFPMIKVSEGKYRVGDSSLLIFVRVLRSHVMVRVGGGWDTLEHYLDKHDPCRC [D15I], for which the abundance fitness was 0.014 ± 0.058. The value for DELVREILGRCTCPWQFPMIKVSEGKYRVGDSSLLIFVRVLRSHVMVRVGGGWDTLEHYLDKHDPCRC [D15W] was -0.32 ± 0.069; that for DELVREILGRCICPDQFPMIKVSEGKYRVGDSSLLIFVRVLRSHVMVRVGGGWDTLEHYLDKHDPCRC [T12I] was -0.313 ± 0.069. The figure for DELVREILGRCSCPDQFPMIKVSEGKYRVGDSSLLIFVRVLRSHVMVRVGGGWDTLEHYLDKHDPCRC [T12S] is -0.181 ± 0.043.

The values are drawn from the Human Domainome abundance scans (Beltran et al. 2025).
